# Reference: patent US11384130B2, “Agent for promoting angiogenesis and methods and uses thereof” (Vasomune Therapeutics Inc., priority 2017, dated 2022)
# B1: human recombinant Ang1: human recombinant angiopoietin 1 (R&D Systems), positive control for Tie2 and MAPK activation (protein, UniProt Q15389 16-498, looked up)
# Angiopoietin-1: HIGCSNQRRSPENSGRRYNRIQHGQCAYTFILPEHDGNCRESTTDQYNTNALQRDAPHVEPDFSSQKLQHLEHVMENYTQWLQKLENYIVENMKSEMAQIQQNAVQNHTATMLEIGTSLLSQTAEQTRKLTDVETQVLNQTSRLEIQLLENSLSTYKLEKQLLQQTNEILKIHEKNSLLEHKILEMEGKHKEELDTLKEEKENLQGLVTRQTYIIQELEKQLNRATTNNSVLQKQQLELMDTVHNLVNLCTKEGVLLKGGKREEEKPFRDCADVYQAGFNKSGIYTIYINNMPEPKKVFCNMDVNGGGWTVIQHREDGSLDFQRGWKEYKMGFGNPSGEYWLGNEFIFAITSQRQYMLRIELMDWEGNRAYSQYDRFHIGNEKQNYRLYLKGHTGTAGKQSSLILHGADFSTKDADNDNCMCKCALMLTGGWWFDACGPSNLNGMFYTAGQNHGKLNGIKWHYFKGPSYSLRSTTMMIRPLDF
# Tests used:
# Assay type in all cases: cell-based
# Conditions in all cases: positive control
# [1] = system: Tie2 receptor; test: Tie2 phosphorylation in primary cynomolgus monkey glomerular endothelial cells
# Method: Primary cynomolgus monkey glomerular endothelial cells (Cell Biologics) were cultured according to details provided above for HMVEC^tert. Tie2 activation studies performed on primary cynomolgus monkey glomerular endothelial cells were performed according to approaches detailed above for the rat primary glomerular endothelial cell studies.
# [2] = target: T1, Tie2 receptor (Canis lupus familiaris, UniProt A0A8I3P3D4); test: Tie2 phosphorylation in primary canine aortic endothelial cells
# T1 construct: primary cultured endothelial cells derived from canine aorta; host or cells: primary canine aortic endothelial cells
# Method: Canine primary aortic endothelial cells (Cell Biologics) were grown in Complete canine endothelial cell medium/w kit (Cell Biologics) in 20% O2, 5% CO2 and 37° C. humidified chamber and split 1:3 once reaching 80-90% confluency. Tie2 activation studies performed on primary cynomolgus monkey glomerular endothelial cells were performed according to approaches detailed above for the rat primary glomerular endothelial cell studies.
# [3] = target: T2, Tie2 receptor (Rattus norvegicus, UniProt A0A8I5ZW61); test: Tie2 phosphorylation in primary rat glomerular endothelial cells
# T2 construct: host or cells: primary rat glomerular endothelial cells
# Method: Rat primary glomerular endothelial cells (Cell Biologics) were grown in Complete rat endothelial cell medium/w kit (Cell Biologics) in 20% O2, 5% CO2 and 37° C. humidified chamber and split 1:3 once reaching 80-90% confluency. To examine the activation of Tie2 by MPA-Br in rat kidney glomerular endothelial cells, 95-100% confluent cells were stimulated with indicated concentrations of the test agent in serum-containing media for 15 minutes. Human Ang-1 (R&D Systems) was used as positive control. Cell lysates were collected using lysis buffer IC12 (detailed above) recommended in Human phospho-Tie-2 ELISA kit (R&D Systems), tyrosine-phosphorylated Tie2 and total Tie2 were measured using ELISA (Human phospho-Tie2 and total-Tie2 ELISA kits, R&D Systems) with substitution of capture antibody validated for rat Tie2. Mouse anti-Tie2 antibody (BD Pharmingen™) and rabbit TEK polyclonal antibody (MyBioSource) were used as capture antibody in pTie2 and total Tie2 ELISA, respectively. The level of Tie2 phosphorylation for all treatment groups was then normalized to that of the no treatment group (NT, complete rat endothelial cell medium) in each experiment.
# T2 sequence (A0A8I5ZW61 20-1121): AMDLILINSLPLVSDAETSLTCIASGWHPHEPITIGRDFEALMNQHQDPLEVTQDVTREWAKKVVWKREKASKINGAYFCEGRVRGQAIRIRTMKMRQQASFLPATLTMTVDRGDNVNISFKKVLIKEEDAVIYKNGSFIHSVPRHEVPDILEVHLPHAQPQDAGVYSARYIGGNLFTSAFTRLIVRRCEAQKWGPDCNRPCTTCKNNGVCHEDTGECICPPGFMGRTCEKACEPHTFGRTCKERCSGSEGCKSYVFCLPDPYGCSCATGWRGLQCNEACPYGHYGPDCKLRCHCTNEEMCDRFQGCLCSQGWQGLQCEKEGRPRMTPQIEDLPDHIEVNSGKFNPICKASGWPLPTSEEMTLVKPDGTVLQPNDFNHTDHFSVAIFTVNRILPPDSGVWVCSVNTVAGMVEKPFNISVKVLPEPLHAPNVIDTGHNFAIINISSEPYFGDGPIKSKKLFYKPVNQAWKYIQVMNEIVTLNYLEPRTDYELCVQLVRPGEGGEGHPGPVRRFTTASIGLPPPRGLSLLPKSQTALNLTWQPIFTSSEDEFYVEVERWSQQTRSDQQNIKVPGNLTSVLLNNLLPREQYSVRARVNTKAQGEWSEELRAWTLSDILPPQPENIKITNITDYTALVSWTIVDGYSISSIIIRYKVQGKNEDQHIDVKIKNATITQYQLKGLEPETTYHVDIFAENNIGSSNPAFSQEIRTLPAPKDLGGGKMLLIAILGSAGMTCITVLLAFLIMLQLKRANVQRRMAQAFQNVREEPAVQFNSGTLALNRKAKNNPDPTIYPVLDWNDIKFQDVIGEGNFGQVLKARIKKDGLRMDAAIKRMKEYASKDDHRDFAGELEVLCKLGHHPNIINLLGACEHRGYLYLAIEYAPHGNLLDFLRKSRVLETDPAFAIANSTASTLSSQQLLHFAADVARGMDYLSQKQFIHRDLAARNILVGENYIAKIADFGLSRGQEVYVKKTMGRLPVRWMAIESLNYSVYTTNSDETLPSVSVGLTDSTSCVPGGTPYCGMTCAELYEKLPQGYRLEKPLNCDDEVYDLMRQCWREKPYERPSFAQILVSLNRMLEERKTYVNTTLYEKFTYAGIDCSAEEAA
# T1 sequence (A0A8I3P3D4 entry or part of it): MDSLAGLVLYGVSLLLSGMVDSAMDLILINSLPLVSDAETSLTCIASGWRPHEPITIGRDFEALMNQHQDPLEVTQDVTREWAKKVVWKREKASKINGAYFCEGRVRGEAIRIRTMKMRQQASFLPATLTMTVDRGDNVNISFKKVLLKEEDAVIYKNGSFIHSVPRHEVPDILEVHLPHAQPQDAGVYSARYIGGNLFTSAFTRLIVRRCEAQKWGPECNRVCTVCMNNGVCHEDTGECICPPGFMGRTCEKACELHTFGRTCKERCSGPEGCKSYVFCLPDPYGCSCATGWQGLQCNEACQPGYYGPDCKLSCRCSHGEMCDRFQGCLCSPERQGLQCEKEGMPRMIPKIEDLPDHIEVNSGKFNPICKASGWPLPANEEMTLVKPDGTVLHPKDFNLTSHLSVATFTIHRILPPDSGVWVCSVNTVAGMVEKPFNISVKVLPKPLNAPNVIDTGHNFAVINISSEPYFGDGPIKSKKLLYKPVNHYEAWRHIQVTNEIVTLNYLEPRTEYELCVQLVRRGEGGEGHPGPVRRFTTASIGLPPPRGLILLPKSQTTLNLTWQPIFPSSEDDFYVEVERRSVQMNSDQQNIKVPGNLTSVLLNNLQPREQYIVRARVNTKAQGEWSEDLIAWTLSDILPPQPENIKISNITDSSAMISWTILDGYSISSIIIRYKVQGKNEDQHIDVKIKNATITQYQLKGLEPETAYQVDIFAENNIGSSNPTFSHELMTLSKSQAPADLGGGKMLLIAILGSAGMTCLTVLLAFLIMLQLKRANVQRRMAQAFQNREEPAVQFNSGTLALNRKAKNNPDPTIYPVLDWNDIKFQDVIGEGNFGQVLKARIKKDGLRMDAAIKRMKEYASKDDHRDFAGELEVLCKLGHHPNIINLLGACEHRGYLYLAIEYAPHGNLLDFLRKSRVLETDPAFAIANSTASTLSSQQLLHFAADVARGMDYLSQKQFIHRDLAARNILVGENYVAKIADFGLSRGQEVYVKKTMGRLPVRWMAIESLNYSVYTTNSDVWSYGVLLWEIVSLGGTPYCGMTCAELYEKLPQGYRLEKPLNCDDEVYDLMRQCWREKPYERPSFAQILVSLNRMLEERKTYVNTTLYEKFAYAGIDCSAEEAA
molecule,measurement,setting,value
B1,Tie2 phosphorylation compared to no treatment,[1],significant increase in baseline Tie2 phosphorylation
same,Tie2 phosphorylation compared to no treatment,[2],significant increase in baseline Tie2 phosphorylation
same,Tie2 phosphorylation compared to no treatment,[3],significant increase in baseline Tie2 phosphorylation
